According to patent US20260022176A1 (PARAGON THERAPEUTICS, published 2026):
“And” between values parts separate entries of the source, which are not always exact repeats. Equal entries are not always repeated.

Key:
[1] = molecular target: α4β1 integrin on cells (α4β1-positive Ramos cells; HuT-78 cells) (UniProt P13612 34-1032; P05556 21-798, limits assumed); test: cell-based or functional assay
Cyno- α4β7 = molecular target: T1, Cyno- α4β7 (Cyno); test: SPR with multiple cycle kinetics
T1 construct: SPR antigen; construct not described; also called cynomolgus α4β7 integrin

Dog- α4β7 = molecular target: T2, Dog- α4β7 (Dog, UniProt A0A8I3PRY8 36-976; A0A8I3P7W0 20-723); test: SPR with multiple cycle kinetics
T2 construct: SPR antigen; construct not described; also called dog α4β7 integrin; copies: 1 + 1

Rabbit- α4β7 = molecular target: T3, Rabbit- α4β7 (Rabbit, UniProt G1TY34 34-977; G1SFE7 20-723); test: SPR with multiple cycle kinetics
T3 construct: SPR antigen; construct not described; also called rabbit α4β7 integrin; copies: 1 + 1

[2] = molecular target: T4, rat α4β7 integrin on rat PBMCs (rat, UniProt D3ZMQ3 38-1036; G3V7M2 20-791); test: flow cytometry on cryopreserved rat PBMCs
T4 construct: whole, on cells; That the target on them is α4β7 is inferred from the purpose of the study; also called cells isolated from rats

[3] = molecular target: T5, mouse α4β7 integrin on mouse PBMCs (mouse, UniProt Q00651 41-1039; P26011 20-806); test: flow cytometry on cryopreserved mouse PBMCs
T5 construct: whole, on cells; That the target on them is α4β7 is inferred from the purpose of the study; also called cells isolated from mice

[4] = molecular target: T6, monkey α4β7 integrin on monkey PBMCs (monkey); test: receptor occupancy: competition with fluorescently labeled antibody, flow cytometry; all cell types, monkey PBMCs; mean, n = 7
T6 construct: whole, on cells; Receptor occupancy on CD4+, CD20+ and CD45RO+ cells from monkey donors
Procedure: (§1) The IC₅₀ values for competitive inhibition were determined by titrating unlabeled Ab001 into samples equilibrated with EC₅₀ concentrations of fluorescently labeled Ab001. Ab001 and Comparator Antibody Receptor Occupancy (IC₅₀) on CD4+, CD20+, and CD45RO+Cells from Human and Monkey Donors are shown in Table 2B.

[5] = molecular target: T6, monkey α4β7 integrin on monkey PBMCs; test: receptor occupancy: competition with fluorescently labeled antibody, flow cytometry; CD20+ B cells, monkey PBMCs; range, n = 3 donors
Procedure: as §1

[6] = molecular target: T6, monkey α4β7 integrin on monkey PBMCs; test: receptor occupancy: competition with fluorescently labeled antibody, flow cytometry; CD4+ Th cells, monkey PBMCs; range, n = 3 donors
Procedure: as §1

[7] = molecular target: T6, monkey α4β7 integrin on monkey PBMCs; test: receptor occupancy: competition with fluorescently labeled antibody, flow cytometry; CD45RO+ memory T cells, monkey PBMCs; n = 1 donor
Procedure: as §1

B1: Natalizumab (antibody, V domains shown)
VH: QVQLVQSGAEVKKPGASVKVSCKASGFNIKDTYIHWVRQAPGQRLEWMGRIDPANGYTKYDPKFQGRVTITADTSASTAYMELSSLRSEDTAVYYCAREGYYGNYGVYAMDYWGQGTLVTVSS
VL: DIQMTQSPSSLSASVGDRVTITCKTSQDINKYMAWYQQTPGKAPRLLIHYTSALQPGIPSRFSGSGSGRDYTFTISSLQPEDIATYYCLQYDNLWTFGQGTKVEIK
**Q.** With B1 as the binder, how does the “VCAM-1 Inhibition IC50 (adhesion of HuT-78 cells to coated recombinant VCAM-1)” value [1] read?
**A.** The value was 0.23 nM.

B2: α4β7 binding antibody Ab001 (antibody, human IgG1, kappa)
heavy: QVQLVQSGAEVKKPGASVKVSCKGSGYTFTSYWMHWVRQAPGQRLEWIGEIDPSESNTNYNQKFKGRVTLTVDISASTAYMELSSLRSEDTAVYYCARGGYDGWDYAIDYWGQGTLVTVSSASTKGPSVFPLAPSSKSTSGGTAALGCLVKDYFPEPVTVSWNSGALTSGVHTFPAVLQSSGLYSLSSVVTVPSSSLGTQTYICNVNHKPSNTKVDKKVEPKSCDKTHTCPPCPAPELAGAPSVFLFPPKPKDTLYITREPEVTCVVVDVSHEDPEVKFNWYVDGVEVHNAKTKPREEQYNSTYRVVSVLTVLHQDWLNGKEYKCKVSNKALPAPIEKTISKAKGQPREPQVYTLPPSRDELTKNQVSLTCLVKGFYPSDIAVEWESNGQPENNYKTTPPVLDSDGSFFLYSKLTVDKSRWQQGNVFSCSVMHEALHNHYTQKSLSLSPG
light: DVVMTQSPLSLPVTPGEPASISCRSSQSLAKSYGNTYLSWYLQKPGQSPQLLIYGISNRFSGVPDRFSGSGSGTDFTLKISRVEAEDVGVYYCLQGTHQPYTFGQGTKVEIKRTVAAPSVFIFPPSDEQLKSGTASVVCLLNNFYPREAKVQWKVDNALQSGNSQESVTEQDSKDSTYSLSSTLTLSKADYEKHKVYACEVTHQGLSSPVTKSFNRGEC
notes: also called long acting α4β7 targeting molecule; Ab001-A647
**Q.** For B2, which Kd (Cyno- α4β7) is on record?
**A.** Its Kd is 2.72 nM.

**Q.** And the Kd (Dog- α4β7)?
**A.** Its Kd is 4.81 nM.

**Q.** And the Kd (Rabbit- α4β7)?
**A.** Its Kd is 6.26 nM.

**Q.** Does B2 bind [2]?
**A.** Result: no binding

**Q.** Does B2 bind [3]?
**A.** Result: no binding

**Q.** And the IC50 [4]?
**A.** Its IC50 is 0.5 nM.

**Q.** What about the IC50 [5] of the same binder?
**A.** The IC50 was 0.46 nM and 0.5 nM.

**Q.** What about the IC50 [6] of the same binder?
**A.** The IC50 was 0.49 nM and 0.54 nM.

**Q.** And the IC50 [7]?
**A.** The IC50 was 0.53 nM.

B3: comparator antibody (antibody, human IgG1, kappa)
heavy: not shown
light: DVVMTQSPLSLPVTPGEPASISCRSSQSLAKSYGNTYLSWYLQKPGQSPQLLIYGISNRFSGVPDRFSGSGSGTDFTLKISRVEAEDVGVYYCLQGTHQPYTFGQGTKVEIKRTVAAPSVFIFPPSDEQLKSGTASVVCLLNNFYPREAKVQWKVDNALQSGNSQESVTEQDSKDSTYSLSSTLTLSKADYEKHKVYACEVTHQGLSSPVTKSFNRGEC
**Q.** With B3 as the binder, how does the Kd (Cyno- α4β7) read?
**A.** Its Kd is 1.2 nM.

**Q.** And the Kd (Dog- α4β7)?
**A.** Its Kd is 1.77 nM.

**Q.** And the Kd (Rabbit- α4β7)?
**A.** Its Kd is 5.34 nM.

**Q.** Does B3 bind [2]?
**A.** Result: no binding

**Q.** Does B3 bind [3]?
**A.** Result: no binding

**Q.** And the IC50 [4]?
**A.** The IC50 was 0.56 nM.

**Q.** What about the IC50 [5] of the same binder?
**A.** The IC50 was 0.42 nM and 0.66 nM.

**Q.** And the IC50 [6]?
**A.** The IC50 was 0.48 nM and 0.6 nM.

**Q.** And the IC50 [7]?
**A.** The IC50 was 0.58 nM.
